The text below walks through data of article PMC11260122.

For this series, the target named is T1, PTK7 (His tag) (UniProt Q13308 31-704).
T1 sequence: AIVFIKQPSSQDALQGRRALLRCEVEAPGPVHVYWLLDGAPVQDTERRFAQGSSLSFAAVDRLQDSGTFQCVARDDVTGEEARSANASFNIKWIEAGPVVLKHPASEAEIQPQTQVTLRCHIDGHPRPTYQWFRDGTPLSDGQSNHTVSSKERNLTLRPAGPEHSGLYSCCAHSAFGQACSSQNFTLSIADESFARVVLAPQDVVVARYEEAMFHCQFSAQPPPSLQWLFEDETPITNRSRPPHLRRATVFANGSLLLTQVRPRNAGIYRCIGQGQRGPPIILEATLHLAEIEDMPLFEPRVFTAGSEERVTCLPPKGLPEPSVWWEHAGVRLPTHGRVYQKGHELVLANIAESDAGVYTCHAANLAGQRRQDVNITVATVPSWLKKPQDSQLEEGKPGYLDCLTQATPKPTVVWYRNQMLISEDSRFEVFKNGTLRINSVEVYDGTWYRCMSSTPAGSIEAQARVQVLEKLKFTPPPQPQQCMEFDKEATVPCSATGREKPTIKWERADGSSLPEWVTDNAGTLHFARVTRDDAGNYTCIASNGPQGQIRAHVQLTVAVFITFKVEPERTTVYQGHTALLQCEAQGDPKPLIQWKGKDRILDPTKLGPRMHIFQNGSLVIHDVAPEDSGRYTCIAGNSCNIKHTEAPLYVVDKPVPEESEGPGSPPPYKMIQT
The series can be described thus: SPR. In general terms: In SPR one partner is held on a chip, and binding of the other changes the refractive index at the surface.

For the molecule ATCTAACTTCTGAGCCGCCGGGAAAATACTGTACGGTTAGA (structured_DNA) [G9T·C13A], the binding result is “no binding”.

In the case of ATCTAACTGTTACGCCGCCGGGAAAATACTGTACGGTTAGA (structured_DNA) [C10T·G12A], the binding result is recorded as “no binding”.

Turning to ATCTAACTGGTCCGCCGCCGGGAAAATACTGTACGGTTAGA (structured_DNA) [C10G·G12C], the binding result is listed as “no binding”.

Turning to ATCTAACTCCTGGGCCGCCGGGAAAATACTGTACGGTTAGA (structured_DNA) [G9C·C13G], the binding result is reported as “no binding”.

With ATCTAACTGATTCGCCGCCGGGAAAATACTGTACGGTTAGA (structured_DNA) [C10A·G12T], the binding result is on record as “no binding”.

ATCTAACTACTGTGCCGCCGGGAAAATACTGTACGGTTAGA (structured_DNA) [G9A·C13T]: the binding result is given as “no binding”.
